Measurements as given in patent US20220332804A1 (CSL INNOVATION, published 2022).

How the values were obtained:
Assay in all cases: SPR; KD relative to WT C2;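 note: biacore SPR at 37 °C, anti-C2 mAbs captured on an anti-human IgG chip, alanine or serine C2 surface mutants tested, KD from 1:1 fit compared with wild-type C2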
[1] = target: T1, human C2 D454A (human, UniProt P06681 21-752)
T1 sequence: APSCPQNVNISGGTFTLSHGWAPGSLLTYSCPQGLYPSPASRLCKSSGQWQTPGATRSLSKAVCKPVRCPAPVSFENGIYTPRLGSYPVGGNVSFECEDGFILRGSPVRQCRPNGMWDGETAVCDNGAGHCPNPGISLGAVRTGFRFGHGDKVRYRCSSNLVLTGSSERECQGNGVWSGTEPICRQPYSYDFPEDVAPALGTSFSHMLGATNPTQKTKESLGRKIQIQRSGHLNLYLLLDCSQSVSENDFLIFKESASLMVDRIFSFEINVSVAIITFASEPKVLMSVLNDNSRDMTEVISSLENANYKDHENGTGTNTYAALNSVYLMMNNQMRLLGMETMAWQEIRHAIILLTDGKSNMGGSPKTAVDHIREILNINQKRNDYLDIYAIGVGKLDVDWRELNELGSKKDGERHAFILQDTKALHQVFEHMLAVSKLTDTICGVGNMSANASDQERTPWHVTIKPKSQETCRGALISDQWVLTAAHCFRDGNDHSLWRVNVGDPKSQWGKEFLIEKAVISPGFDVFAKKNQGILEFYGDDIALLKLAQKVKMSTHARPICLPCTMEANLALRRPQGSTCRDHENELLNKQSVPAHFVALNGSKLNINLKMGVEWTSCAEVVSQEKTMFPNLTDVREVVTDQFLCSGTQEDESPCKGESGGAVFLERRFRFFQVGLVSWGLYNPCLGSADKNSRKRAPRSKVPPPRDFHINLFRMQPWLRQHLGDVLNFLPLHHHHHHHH

[2] = target: T2, human C2 E450A (human, UniProt P06681 21-752)
T2 sequence: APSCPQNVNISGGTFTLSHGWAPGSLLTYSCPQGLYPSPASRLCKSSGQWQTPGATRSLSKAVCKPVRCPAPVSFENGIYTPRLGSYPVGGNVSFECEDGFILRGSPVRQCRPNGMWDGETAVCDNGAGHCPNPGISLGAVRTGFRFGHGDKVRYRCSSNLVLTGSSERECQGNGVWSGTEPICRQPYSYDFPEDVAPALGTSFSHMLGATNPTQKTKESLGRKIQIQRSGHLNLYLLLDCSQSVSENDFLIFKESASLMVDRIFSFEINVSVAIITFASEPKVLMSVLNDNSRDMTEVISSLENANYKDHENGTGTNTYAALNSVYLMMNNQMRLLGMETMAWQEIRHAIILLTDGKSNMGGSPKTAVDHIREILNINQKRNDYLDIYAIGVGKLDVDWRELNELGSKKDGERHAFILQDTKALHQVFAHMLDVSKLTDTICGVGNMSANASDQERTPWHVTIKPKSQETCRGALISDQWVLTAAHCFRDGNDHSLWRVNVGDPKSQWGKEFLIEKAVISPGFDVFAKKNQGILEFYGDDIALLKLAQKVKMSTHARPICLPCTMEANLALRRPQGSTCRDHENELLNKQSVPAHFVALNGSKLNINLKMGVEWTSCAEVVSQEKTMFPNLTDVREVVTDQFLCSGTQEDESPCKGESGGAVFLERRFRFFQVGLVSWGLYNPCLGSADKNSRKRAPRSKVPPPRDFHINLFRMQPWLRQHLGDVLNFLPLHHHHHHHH

[3] = target: T3, human C2 A472S (human, UniProt P06681 21-752)
T3 sequence: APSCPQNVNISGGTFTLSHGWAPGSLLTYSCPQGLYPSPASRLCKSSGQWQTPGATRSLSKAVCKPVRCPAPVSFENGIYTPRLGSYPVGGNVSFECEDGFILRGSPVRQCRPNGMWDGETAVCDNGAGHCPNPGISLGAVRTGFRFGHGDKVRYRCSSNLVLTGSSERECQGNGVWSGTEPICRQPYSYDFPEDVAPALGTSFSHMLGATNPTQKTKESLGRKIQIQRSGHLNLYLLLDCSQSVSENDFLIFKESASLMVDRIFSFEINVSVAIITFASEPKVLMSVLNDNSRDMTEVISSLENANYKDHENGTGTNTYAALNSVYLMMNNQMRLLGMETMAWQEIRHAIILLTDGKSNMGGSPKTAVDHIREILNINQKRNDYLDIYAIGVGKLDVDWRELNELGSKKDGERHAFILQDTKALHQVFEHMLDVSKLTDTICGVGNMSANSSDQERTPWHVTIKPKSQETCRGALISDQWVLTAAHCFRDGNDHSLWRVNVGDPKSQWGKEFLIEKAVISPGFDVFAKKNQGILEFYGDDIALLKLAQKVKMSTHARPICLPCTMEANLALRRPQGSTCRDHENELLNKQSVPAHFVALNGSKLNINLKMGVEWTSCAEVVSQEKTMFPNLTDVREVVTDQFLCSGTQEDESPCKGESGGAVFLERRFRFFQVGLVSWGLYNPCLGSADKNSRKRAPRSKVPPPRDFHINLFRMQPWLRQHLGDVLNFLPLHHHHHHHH

[4] = target: T4, human C2 R434A (human, UniProt P06681 21-752)
T4 sequence: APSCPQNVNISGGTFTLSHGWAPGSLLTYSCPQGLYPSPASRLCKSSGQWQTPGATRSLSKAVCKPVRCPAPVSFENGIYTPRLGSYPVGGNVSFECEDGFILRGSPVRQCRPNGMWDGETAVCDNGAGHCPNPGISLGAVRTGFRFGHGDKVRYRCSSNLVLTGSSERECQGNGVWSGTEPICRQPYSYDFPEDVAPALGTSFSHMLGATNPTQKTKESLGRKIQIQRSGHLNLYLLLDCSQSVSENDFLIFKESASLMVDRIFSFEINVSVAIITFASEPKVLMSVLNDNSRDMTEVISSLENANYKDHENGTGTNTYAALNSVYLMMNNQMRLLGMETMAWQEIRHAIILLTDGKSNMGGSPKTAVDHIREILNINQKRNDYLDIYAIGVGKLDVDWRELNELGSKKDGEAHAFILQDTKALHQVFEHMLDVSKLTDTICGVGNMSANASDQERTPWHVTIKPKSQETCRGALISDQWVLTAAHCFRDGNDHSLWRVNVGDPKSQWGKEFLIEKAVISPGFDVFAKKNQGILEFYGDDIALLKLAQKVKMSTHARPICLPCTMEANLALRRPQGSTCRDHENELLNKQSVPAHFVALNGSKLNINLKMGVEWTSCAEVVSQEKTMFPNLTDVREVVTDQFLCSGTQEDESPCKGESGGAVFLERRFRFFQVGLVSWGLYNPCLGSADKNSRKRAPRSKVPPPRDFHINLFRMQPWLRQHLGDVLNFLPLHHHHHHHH

B1: RF16-214 (antibody, V domains shown)
VH: EVQLLESGGGLVQPGGSLRLSCAASGFTFSWYQMMWVRQAPGKGLEWVSRIYPSGGGTAYADSVKGRFTISRDNSKNTLYLQMNSLRAEDTAVYYCARDAGYGDNWGQGTLVTVSS
VL: QSALTQPPSVSVSPGQTASITCSGDKLGEKYASWYQQKAGQSPVMVIYQDRKRPSGIPERFSGSNSGNTATLTISGTQAMDEADYYCQAWDTRAVVFGGGTKLTVLG
B1 was tested, and the Fold diff [1] was 4 fold, the Fold diff [2] was 20 fold and the Fold diff [3] was 8 fold. The Fold diff [4] was 7 fold.
